Numbered stars: 1 amine (or outer) side, 2 acyl side, 3 side chain; on linkers, the order of the positions; unused ones are H or OH. Square brackets hold non-standard residues; d marks the D form. Side chains are listed from the residue outwards. Ends that are not written are not given here. * marks the point of attachment. C20 diacid = O=C(O)CCCCCCCCCCCCCCCCCCC(=O)*; γGlu = O=C(O)[C@H](CCC(=O)[*:2])N[*:1]; αMeL = CC(C)C[C@](C)(N)C(=O)O; Dab = NCC[C@H](N)C(=O)O; Dap = NC[C@H](N)C(=O)O; AEEA = NCCOCCOCC(=O)O; Aib = CC(C)(N)C(=O)O
What was measured:
Test in all cases: cell-based or functional assay
human GLP-1 receptor = human GLP-1 receptor (human, UniProt P43220 24-463)
human GIP receptor = biological target: T1, human GIP receptor (human, UniProt P48546 22-466)
T1 sequence (looked up): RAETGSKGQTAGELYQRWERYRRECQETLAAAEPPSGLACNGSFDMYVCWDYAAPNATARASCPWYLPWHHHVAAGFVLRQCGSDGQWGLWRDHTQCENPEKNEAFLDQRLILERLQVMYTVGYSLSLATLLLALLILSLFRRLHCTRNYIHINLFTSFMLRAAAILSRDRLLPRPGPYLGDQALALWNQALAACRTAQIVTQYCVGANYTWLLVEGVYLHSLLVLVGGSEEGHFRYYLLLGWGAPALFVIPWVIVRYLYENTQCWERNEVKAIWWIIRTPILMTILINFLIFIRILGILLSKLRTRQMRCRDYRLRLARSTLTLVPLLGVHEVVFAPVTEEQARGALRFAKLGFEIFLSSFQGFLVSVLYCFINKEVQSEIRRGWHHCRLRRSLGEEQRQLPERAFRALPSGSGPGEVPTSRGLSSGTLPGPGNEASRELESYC

[1] = biological target: T2, human gastric inhibitory peptide receptor (GIPR) (human, UniProt P48546 22-466)
T2 sequence (looked up): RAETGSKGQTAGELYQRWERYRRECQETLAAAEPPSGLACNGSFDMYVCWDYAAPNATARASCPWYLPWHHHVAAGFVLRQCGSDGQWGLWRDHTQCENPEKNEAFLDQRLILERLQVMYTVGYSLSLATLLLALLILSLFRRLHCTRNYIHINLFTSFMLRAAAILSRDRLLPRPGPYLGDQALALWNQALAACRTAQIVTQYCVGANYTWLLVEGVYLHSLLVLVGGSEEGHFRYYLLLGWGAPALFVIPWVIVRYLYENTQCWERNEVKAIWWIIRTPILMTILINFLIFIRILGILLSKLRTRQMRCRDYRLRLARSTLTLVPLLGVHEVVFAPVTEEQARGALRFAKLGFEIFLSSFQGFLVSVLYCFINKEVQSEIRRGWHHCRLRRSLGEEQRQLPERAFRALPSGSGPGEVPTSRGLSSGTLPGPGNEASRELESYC

[2] = biological target: human GLP-1 receptor (GLP-1R) (human, UniProt P43220 24-463)

B1: Example 23 (peptide)
peptide: Y[Aib]EGTFTSDK([AEEA-AEEA-γGlu-C20 diacid])SILLDKIAQ[Aib]AFIEYLIEGGPSSGAPPPS-NH2
modifications: N-terminus assumed
SMILES: CC[C@H](C)[C@H](NC(=O)[C@H](CCCCN)NC(=O)[C@H](CC(=O)O)NC(=O)[C@H](CC(C)C)NC(=O)[C@H](CC(C)C)NC(=O)[C@@H](NC(=O)[C@H](CO)NC(=O)[C@H](CCCCNC(=O)COCCOCCNC(=O)COCCOCCNC(=O)CC[C@H](NC(=O)CCCCCCCCCCCCCCCCCCC(=O)O)C(=O)O)NC(=O)[C@H](CC(=O)O)NC(=O)[C@H](CO)NC(=O)[C@@H](NC(=O)[C@H](Cc1ccccc1)NC(=O)[C@@H](NC(=O)CNC(=O)[C@H](CCC(=O)O)NC(=O)C(C)(C)NC(=O)[C@@H](N)Cc1ccc(O)cc1)[C@@H](C)O)[C@@H](C)O)[C@@H](C)CC)C(=O)N[C@@H](C)C(=O)N[C@@H](CCC(N)=O)C(=O)NC(C)(C)C(=O)N[C@@H](C)C(=O)N[C@@H](Cc1ccccc1)C(=O)N[C@H](C(=O)N[C@@H](CCC(=O)O)C(=O)N[C@@H](Cc1ccc(O)cc1)C(=O)N[C@@H](CC(C)C)C(=O)N[C@H](C(=O)N[C@@H](CCC(=O)O)C(=O)NCC(=O)NCC(=O)N1CCC[C@H]1C(=O)N[C@@H](CO)C(=O)N[C@@H](CO)C(=O)NCC(=O)N[C@@H](C)C(=O)N1CCC[C@H]1C(=O)N1CCC[C@H]1C(=O)N1CCC[C@H]1C(=O)N[C@@H](CO)C(N)=O)[C@@H](C)CC)[C@@H](C)CC
Human GLP-1 receptor
  hGLP1R cAMP EC50 ratio: 0.342
  hGLP1R cAMP Rel EC50: 0.19 nM
Human GIP receptor
  hGIPR cAMP EC50 ratio: 0.754
  hGIPR cAMP Rel EC50: 0.204 nM

B2: Example 24 (peptide)
peptide: Y[Aib]EGTFTSDYK([AEEA-AEEA-γGlu-C20 diacid])ILLDKIAQ[Aib]AFIEYLIEGGPSSGAPPPS-NH2
modifications: N-terminus assumed
SMILES: CC[C@H](C)[C@H](NC(=O)[C@H](CCCCN)NC(=O)[C@H](CC(=O)O)NC(=O)[C@H](CC(C)C)NC(=O)[C@H](CC(C)C)NC(=O)[C@@H](NC(=O)[C@H](CCCCNC(=O)COCCOCCNC(=O)COCCOCCNC(=O)CC[C@H](NC(=O)CCCCCCCCCCCCCCCCCCC(=O)O)C(=O)O)NC(=O)[C@H](Cc1ccc(O)cc1)NC(=O)[C@H](CC(=O)O)NC(=O)[C@H](CO)NC(=O)[C@@H](NC(=O)[C@H](Cc1ccccc1)NC(=O)[C@@H](NC(=O)CNC(=O)[C@H](CCC(=O)O)NC(=O)C(C)(C)NC(=O)[C@@H](N)Cc1ccc(O)cc1)[C@@H](C)O)[C@@H](C)O)[C@@H](C)CC)C(=O)N[C@@H](C)C(=O)N[C@@H](CCC(N)=O)C(=O)NC(C)(C)C(=O)N[C@@H](C)C(=O)N[C@@H](Cc1ccccc1)C(=O)N[C@H](C(=O)N[C@@H](CCC(=O)O)C(=O)N[C@@H](Cc1ccc(O)cc1)C(=O)N[C@@H](CC(C)C)C(=O)N[C@H](C(=O)N[C@@H](CCC(=O)O)C(=O)NCC(=O)NCC(=O)N1CCC[C@H]1C(=O)N[C@@H](CO)C(=O)N[C@@H](CO)C(=O)NCC(=O)N[C@@H](C)C(=O)N1CCC[C@H]1C(=O)N1CCC[C@H]1C(=O)N1CCC[C@H]1C(=O)N[C@@H](CO)C(N)=O)[C@@H](C)CC)[C@@H](C)CC
Human GLP-1 receptor
  hGLP1R cAMP EC50 ratio: 0.00416
  hGLP1R cAMP Rel EC50: 13 nM
Human GIP receptor
  hGIPR cAMP EC50 ratio: 0.228
  hGIPR cAMP Rel EC50: 0.762 nM

B3: Example 350 (peptide)
peptide: [dY][Aib]EGTFTSDYSI[αMeL]LD[Dab]K([AEEA-AEEA-γGlu-C20 diacid])AQ[Aib]EFIEYLIAGGPSSGAPPPS-NH2
modifications: N-terminus assumed
SMILES: CC[C@H](C)[C@H](NC(=O)[C@H](CC(C)C)NC(=O)[C@H](Cc1ccc(O)cc1)NC(=O)[C@H](CCC(=O)O)NC(=O)[C@@H](NC(=O)[C@H](Cc1ccccc1)NC(=O)[C@H](CCC(=O)O)NC(=O)C(C)(C)NC(=O)[C@H](CCC(N)=O)NC(=O)[C@H](C)NC(=O)[C@H](CCCCNC(=O)COCCOCCNC(=O)COCCOCCNC(=O)CC[C@H](NC(=O)CCCCCCCCCCCCCCCCCCC(=O)O)C(=O)O)NC(=O)[C@H](CCN)NC(=O)[C@H](CC(=O)O)NC(=O)[C@H](CC(C)C)NC(=O)[C@](C)(CC(C)C)NC(=O)[C@@H](NC(=O)[C@H](CO)NC(=O)[C@H](Cc1ccc(O)cc1)NC(=O)[C@H](CC(=O)O)NC(=O)[C@H](CO)NC(=O)[C@@H](NC(=O)[C@H](Cc1ccccc1)NC(=O)[C@@H](NC(=O)CNC(=O)[C@H](CCC(=O)O)NC(=O)C(C)(C)NC(=O)[C@H](N)Cc1ccc(O)cc1)[C@@H](C)O)[C@@H](C)O)[C@@H](C)CC)[C@@H](C)CC)C(=O)N[C@@H](C)C(=O)NCC(=O)NCC(=O)N1CCC[C@H]1C(=O)N[C@@H](CO)C(=O)N[C@@H](CO)C(=O)NCC(=O)N[C@@H](C)C(=O)N1CCC[C@H]1C(=O)N1CCC[C@H]1C(=O)N1CCC[C@H]1C(=O)N[C@@H](CO)C(N)=O
[1]
  hGIPR cAMP EC50 ratio: 0.741
  hGIPR cAMP Rel EC50: 0.189 nM
[2]
  hGLP1R cAMP EC50 ratio: 0.307
  hGLP1R cAMP Rel EC50: 0.107 nM

B4: Example 351 (peptide)
peptide: [dY][Aib]EGTFTSDYSI[αMeL]LD[Dap]K([AEEA-AEEA-γGlu-C20 diacid])AQ[Aib]EFIEYLIAGGPSSGAPPPS-NH2
modifications: N-terminus assumed
SMILES: CC[C@H](C)[C@H](NC(=O)[C@H](CC(C)C)NC(=O)[C@H](Cc1ccc(O)cc1)NC(=O)[C@H](CCC(=O)O)NC(=O)[C@@H](NC(=O)[C@H](Cc1ccccc1)NC(=O)[C@H](CCC(=O)O)NC(=O)C(C)(C)NC(=O)[C@H](CCC(N)=O)NC(=O)[C@H](C)NC(=O)[C@H](CCCCNC(=O)COCCOCCNC(=O)COCCOCCNC(=O)CC[C@H](NC(=O)CCCCCCCCCCCCCCCCCCC(=O)O)C(=O)O)NC(=O)[C@H](CN)NC(=O)[C@H](CC(=O)O)NC(=O)[C@H](CC(C)C)NC(=O)[C@](C)(CC(C)C)NC(=O)[C@@H](NC(=O)[C@H](CO)NC(=O)[C@H](Cc1ccc(O)cc1)NC(=O)[C@H](CC(=O)O)NC(=O)[C@H](CO)NC(=O)[C@@H](NC(=O)[C@H](Cc1ccccc1)NC(=O)[C@@H](NC(=O)CNC(=O)[C@H](CCC(=O)O)NC(=O)C(C)(C)NC(=O)[C@H](N)Cc1ccc(O)cc1)[C@@H](C)O)[C@@H](C)O)[C@@H](C)CC)[C@@H](C)CC)C(=O)N[C@@H](C)C(=O)NCC(=O)NCC(=O)N1CCC[C@H]1C(=O)N[C@@H](CO)C(=O)N[C@@H](CO)C(=O)NCC(=O)N[C@@H](C)C(=O)N1CCC[C@H]1C(=O)N1CCC[C@H]1C(=O)N1CCC[C@H]1C(=O)N[C@@H](CO)C(N)=O
[1]
  hGIPR cAMP EC50 ratio: 0.47
  hGIPR cAMP Rel EC50: 0.298 nM
[2]
  hGLP1R cAMP EC50 ratio: 0.22
  hGLP1R cAMP Rel EC50: 0.149 nM

B5: Example 352 (peptide)
peptide: XXEGTFTSDYSIXLDKKAQXAFIXYLIAGGPSSGAPPPS
modifications: D-Tyr1, Aib2, αMeL13, (2-[2-(2-Amino-ethoxy)-ethoxy]-acetyl)2-(γ-Glu)-CO-(CH2)18-CO2H on K17, Aib20, D-Glu24, C-terminal NH2
[1]
  hGIPR cAMP EC50 ratio: 0.815
  hGIPR cAMP Rel EC50: 0.127 nM
[2]
  hGLP1R cAMP EC50 ratio: 0.201
  hGLP1R cAMP Rel EC50: 0.142 nM

B6: Example 353 (peptide)
peptide: XXEGTFTSDYSIXLDKKAQXEFIXYLIEGGPSSGAPPPS
modifications: D-Tyr1, Aib2, αMeL13, (2-[2-(2-Amino-ethoxy)-ethoxy]-acetyl)2-(γ-Glu)-CO-(CH2)18-CO2H on K17, Aib20, D-Glu24, C-terminal NH2
[1]
  hGIPR cAMP EC50 ratio: 0.145
  hGIPR cAMP Rel EC50: 0.497 nM
[2]
  hGLP1R cAMP EC50 ratio: 0.0231
  hGLP1R cAMP Rel EC50: 1.09 nM

B7: Example 354 (peptide)
peptide: XXEGTFTSDYSIXLDXKAQXEFIXYLIAGGPSSGAPPPS
modifications: D-Tyr1, Aib2, αMeL13, Orn16, (2-[2-(2-Amino-ethoxy)-ethoxy]-acetyl)2-(γ-Glu)-CO-(CH2)18-CO2H on K17, Aib20, D-Glu24, C-terminal NH2
[1]
  hGIPR cAMP EC50 ratio: 0.441
  hGIPR cAMP Rel EC50: 0.233 nM
[2]
  hGLP1R cAMP EC50 ratio: 0.0517
  hGLP1R cAMP Rel EC50: 0.54 nM

B8: Example 355 (peptide)
peptide: XXEGTFTSDYSIXLDXKAQXEFIXYLIEGGPSSGAPPPS
modifications: D-Tyr1, Aib2, αMeL13, Orn16, (2-[2-(2-Amino-ethoxy)-ethoxy]-acetyl)2-(γ-Glu)-CO-(CH2)18-CO2H on K17, Aib20, D-Glu24, C-terminal NH2
[1]
  hGIPR cAMP EC50 ratio: 0.111
  hGIPR cAMP Rel EC50: 0.685 nM
[2]
  hGLP1R cAMP EC50 ratio: 0.0285
  hGLP1R cAMP Rel EC50: 0.896 nM
